# Source: PMC4586260 (Biochemistry, 2008)
# Where “and” joins values, the source holds several entries; their conditions need not be identical. Equal entries are not always repeated.
# B1: WRN fragment WRN(1151-1432) (domain or fragment, human, UniProt Q14191 1151-1432, looked up)
# chain: ETQIVLYGKLVEARQKHANKMDVPPAILATNKILVDMAKMRPTTVENVKRIDGVSEGKAAMLAPLLEVIKHFCQTNSVQTDLFSSTKPQEEQKTSLVAKNKICTLSQSMAITYSLFQEKKMPLKSIAESRILPLMTIGMHLSQAVKAGCPLDLERAGLTPEVQKIIADVIRNPPVNSDMSKISLIRMLVPENIDTYLIHMAIEILKHGPDSGLQPSCDVNKRRCFPGSEEICSSSKRSKEEVGINTETSSAERKRRLPVWFAKGSDTSKKLMDKTKRGGLFS
# B2: WRN C-terminal fragment WRN(1072-1432) (domain or fragment, human, UniProt Q14191 1072-1432, looked up)
# chain: KKLLLPSSKTVSSGTKEHCYNQVPVELSTEKKSNLEKLYSYKPCDKISSGSNISKKSIMVQSPEKAYSSSQPVISAQEQETQIVLYGKLVEARQKHANKMDVPPAILATNKILVDMAKMRPTTVENVKRIDGVSEGKAAMLAPLLEVIKHFCQTNSVQTDLFSSTKPQEEQKTSLVAKNKICTLSQSMAITYSLFQEKKMPLKSIAESRILPLMTIGMHLSQAVKAGCPLDLERAGLTPEVQKIIADVIRNPPVNSDMSKISLIRMLVPENIDTYLIHMAIEILKHGPDSGLQPSCDVNKRRCFPGSEEICSSSKRSKEEVGINTETSSAERKRRLPVWFAKGSDTSKKLMDKTKRGGLFS
# Target: the molecule itself
# Experiment: SEC
row,Protein,stoichiometry N
1,B1,3
2,B2,6 and 3
